Literature values in publication PMC9797105.

Assays:
[1] = biological target: TRP channel PBM (Drosophila melanogaster) (UniProt P19334)
TARP γ-8 PBM = TARP γ-8 PBM (UniProt Q8WXS5)
Chain of UniProt Q8WXS5 (Q8WXS5 whole entry, looked up): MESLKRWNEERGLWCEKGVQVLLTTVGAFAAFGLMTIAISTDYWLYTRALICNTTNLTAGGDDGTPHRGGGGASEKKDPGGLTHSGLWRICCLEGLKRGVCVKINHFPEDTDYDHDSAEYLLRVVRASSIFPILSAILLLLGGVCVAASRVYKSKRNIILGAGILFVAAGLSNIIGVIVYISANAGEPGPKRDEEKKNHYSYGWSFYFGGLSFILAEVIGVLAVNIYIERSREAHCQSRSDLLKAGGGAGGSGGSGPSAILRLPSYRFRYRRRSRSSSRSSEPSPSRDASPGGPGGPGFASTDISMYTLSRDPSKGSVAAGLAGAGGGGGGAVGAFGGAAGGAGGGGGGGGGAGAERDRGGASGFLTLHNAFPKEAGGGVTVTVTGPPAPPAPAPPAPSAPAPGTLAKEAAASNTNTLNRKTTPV

Kd [1] | Kd (TARP γ-8 PBM) | Substance
0.13 µM |  | INAD PDZ3 (from UniProt Q24008)
 | 40 µM | PSD-95 PDZ2 (from UniProt P78352)
